In patent US10100120B2, “Antibody which specifically binds to human CRTH2” (KYOWA HAKKO KIRIN CO., LTD, priority 2015, dated 2018):

Assays:
[1] = molecular target: T1, mutated human CRTH2 with amino acid substitution (Homo sapiens, UniProt Q9Y5Y4, D194A); assay: Epitope analysis using CHO-S cells which express mutated human CRTH2 with amino acid substitution; format: binding; details: mutant D194A; antibody 10 μg/mL; relative to wild-type = 100%
T1 construct: inserting genes encoding various mutants with amino acid substitution obtained by deleting termination codons; expressed in transfected cells; host or cells: CHO-S cells (Lifetechnologies), transient (phmAG1-MNLinker vector)
T1 sequence (Q9Y5Y4 1-395 D194A): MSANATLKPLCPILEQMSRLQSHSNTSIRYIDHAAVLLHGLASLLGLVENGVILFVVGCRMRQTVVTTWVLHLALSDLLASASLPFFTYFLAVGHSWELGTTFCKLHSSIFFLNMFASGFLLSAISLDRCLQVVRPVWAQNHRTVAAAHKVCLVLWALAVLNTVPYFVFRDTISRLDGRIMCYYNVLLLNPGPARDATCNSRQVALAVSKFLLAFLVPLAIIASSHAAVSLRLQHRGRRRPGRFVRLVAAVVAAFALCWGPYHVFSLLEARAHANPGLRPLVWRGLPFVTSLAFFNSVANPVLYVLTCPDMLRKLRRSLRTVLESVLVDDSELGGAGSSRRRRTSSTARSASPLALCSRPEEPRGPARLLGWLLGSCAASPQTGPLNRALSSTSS
Summary of the method: (§1)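 CHO-S cells transiently expressing alanine-substituted human CRTH2 extracellular mutants, C-terminally Azami-Green tagged, 24 h post-transfection. Antibodies at 10 μg/mL, 4 °C 1 h, then Alexa647 anti-IgG secondary 4 °C 1 h; flow cytometry on Azami-Green-positive cells. Reactivity = Alexa647 intensity divided by Azami-Green intensity.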

[2] = molecular target: T2, mutated human CRTH2 with amino acid substitution (Homo sapiens, UniProt Q9Y5Y4, N185A/Y183A/Y184A); assay: as above; format: binding; details: mutant Y183A, Y184A, and N185A; antibody 10 μg/mL; relative to wild-type = 100%
T2 construct: inserting genes encoding various mutants with amino acid substitution obtained by deleting termination codons; expressed in transfected cells; host or cells: CHO-S cells (Lifetechnologies), transient (phmAG1-MNLinker vector)
T2 sequence (Q9Y5Y4 1-395 Y183A/Y184A/N185A): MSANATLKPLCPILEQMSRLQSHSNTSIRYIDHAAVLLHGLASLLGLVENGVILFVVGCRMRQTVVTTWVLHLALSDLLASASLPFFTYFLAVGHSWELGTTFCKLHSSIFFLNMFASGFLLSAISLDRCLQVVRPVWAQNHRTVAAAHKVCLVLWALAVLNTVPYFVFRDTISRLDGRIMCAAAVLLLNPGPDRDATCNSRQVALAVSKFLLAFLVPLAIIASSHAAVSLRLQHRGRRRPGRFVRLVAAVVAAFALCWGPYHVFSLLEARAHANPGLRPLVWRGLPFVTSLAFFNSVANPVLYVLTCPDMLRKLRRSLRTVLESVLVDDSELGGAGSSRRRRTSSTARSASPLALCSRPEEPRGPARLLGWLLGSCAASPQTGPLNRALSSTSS
Summary of the method: as §1

B1: LV0HV1: humanized Lym2 antibody, VL LV0 (SEQ ID NO: 33), VH HV1 (SEQ ID NO: 51) (antibody, V domains shown)
VH: EVQLVESGGGVVQPGRSLRLSCAASGFTFSNYYMAWVRQAPGKGLEWVATISYDGSSTYYRDSVKGRFTISRDNAKNSLYLQMNSLRAEDTATYYCARHRGYYYSGAGYFDYWGQGTMVTVSS
VL: DIVMTQTPLSLPVTPGESASISCRSSQSLEYSDGYTYLEWYLQKPGQSPQVLIYGVSNRFSGVPDRFSGSGSGTDFTLKISRVEAEDVGVYYCFQATHDPLTFGQGTKLEIK
reactivity against cells expressing mutated human CRTH2 [1]: lost
reactivity against cells expressing mutated human CRTH2 [2]: lost
